Source: patent publication US20190161555A1 (ALLIGATOR BIOSCIENCE, published 2019)

T1: Human OX40 (R&D Systems, 3388-OX) (human, UniProt P43489 29-216)
T1 construct: bought; also called OX40-Fc; Human OX40 (R&D systems, #3358_OX)
T1 sequence (looked up): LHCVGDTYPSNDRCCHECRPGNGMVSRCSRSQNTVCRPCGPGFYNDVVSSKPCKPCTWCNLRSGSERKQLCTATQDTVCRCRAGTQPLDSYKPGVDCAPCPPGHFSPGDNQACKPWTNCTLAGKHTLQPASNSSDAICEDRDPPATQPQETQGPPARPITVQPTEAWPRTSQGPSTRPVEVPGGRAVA

T2: Construct 84: full length OX40 (human, UniProt P43489 29-277)
T2 construct: whole, on cells
T2 sequence (looked up): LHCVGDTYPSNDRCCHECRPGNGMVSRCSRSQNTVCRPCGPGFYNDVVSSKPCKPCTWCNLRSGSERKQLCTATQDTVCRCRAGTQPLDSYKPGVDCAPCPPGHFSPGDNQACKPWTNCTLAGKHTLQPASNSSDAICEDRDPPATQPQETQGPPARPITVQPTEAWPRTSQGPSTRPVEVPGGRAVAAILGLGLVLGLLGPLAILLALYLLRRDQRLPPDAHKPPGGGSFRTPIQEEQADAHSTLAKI

T3: murine OX40 (murine, UniProt P47741 20-211, limits assumed)
T3 construct: also called mouse OX40
T3 sequence (looked up): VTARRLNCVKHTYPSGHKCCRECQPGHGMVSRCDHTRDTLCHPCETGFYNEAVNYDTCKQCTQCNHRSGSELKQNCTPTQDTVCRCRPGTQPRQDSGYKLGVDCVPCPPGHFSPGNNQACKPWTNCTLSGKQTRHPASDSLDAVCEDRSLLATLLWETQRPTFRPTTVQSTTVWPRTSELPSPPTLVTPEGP

T4: human OX40 overexpressed on CHO cells (human, UniProt P43489 29-214; P25942 194-277)
T4 construct: extracellular domain;domain: transmembrane and intracellular part; also called hOX40; huOX40 (CHO)
T4 sequence (looked up): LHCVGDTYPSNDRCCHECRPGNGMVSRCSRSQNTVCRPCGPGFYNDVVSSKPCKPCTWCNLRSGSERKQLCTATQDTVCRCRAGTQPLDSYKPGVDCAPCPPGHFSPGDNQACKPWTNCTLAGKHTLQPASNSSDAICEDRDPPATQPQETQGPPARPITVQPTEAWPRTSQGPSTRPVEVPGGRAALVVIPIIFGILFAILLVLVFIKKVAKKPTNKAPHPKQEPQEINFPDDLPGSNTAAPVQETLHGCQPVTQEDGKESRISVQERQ

B1: 1168/1135 (antibody, V domains shown)
VH: EVQLLESGGGLVQPGGSLRLSCAASGFTFSGSSMSWVRQAPGKGLEWVSSISYYGGYTYYADSVKGRFTISRDNSKNTLYLQMNSLRAEDTAVYYCARYFPHYYFDYWGQGTLVTVSS
VL: not shown
notes: OX40 antibody, tested as IgG
B2: 1542/1135 (antibody, V domains shown)
VH: EVQLLESGGGLVQPGGSLRLSCAASGFTFGSSSMYWVRQAPGKGLEWVSGIGYYSYSTSYADSVKGRFTISRDNSKNTLYLQMNSLRAEDTAVYYCARGYPHHYFDYWGQGTLVTVSS
VL: not shown
notes: OX40 antibody, tested as IgG
B3: 1526/1527 (antibody, V domains shown)
VH: EVQLLESGGGLVQPGGSLRLSCAASGFTFSGYSMYWVRQAPGKGLEWVSGIGYSGYGTYYADSVKGRFTISRDNSKNTLYLQMNSLRAEDTAVYYCARYYFHDYAAYSLDYWGQGTLVTVSS
VL: DIQMTQSPSSLSASVGDRVTITCRASQSISSYLNWYQQKPGKAPKLLIYAASSLQSGVPSRFSGSGSGTDFTLTISSLQPEDFATYYCQQYGSDSLLTFGQGTKLEIK
notes: OX40 antibody, tested as IgG
B4: 1482/1483 (antibody, V domains shown)
VH: EVQLLESGGGLVQPGGSLRLSCAASGFTFSSYAMSWVRQAPGKGLEWVSYISYYSGYTYYADSVKGRFTISRDNSKNTLYLQMNSLRAEDTAVYYCARGYGYLDYWGQGTLVTVSS
VL: DIQMTQSPSSLSASVGDRVTITCRASQSISSYLNWYQQKPGKAPKLLIYAASSLQSGVPSRFSGSGSGTDFTLTISSLQPEDFATYYCQQYGSLLTFGQGTKLEIK
notes: OX40 antibody, tested as IgG

How the values were obtained:
[1] = target: T1, Human OX40 (R&D Systems, 3388-OX); assay: ELISA, plates coated with human OX40, IgG
Description: (§1) ELISA plates were coated with human OX40 (R&D Systems, 3388-OX), CD40 (Ancell), or CD137 (R&D Systems) at 0.1 or 0.5 μg/ml. The ELISA plates were washed with PBST and then blocked with PBST+2% BSA for 1 h at room temperature and then washed again with PBST. The antibodies were added in dilution series to the ELISA plates for 1 h at room temperature and then washed with PBST. Binding was detected using goat anti human kappa light chain HRP, incubated for 1 h at room temperature. SuperSignal Pico Luminescent was used as substrate and luminescence was measured using Fluostar Optima.

[2] = target: Macaca mulatta OX40 on HEK cells (Macaca mulatta; human); assay: flow cytometry, macOX40-HEK cells; ends of the 95% confidence interval
Description: For the assay, the transfected cells were incubated with the test antibodies and controls for 30 min at 4° C. and then detected with a-huIgG-PE (Jackson Immunoresearch) 30 min 4° C. Cells were analyzed by flow cytometry with FACS Verse (BD Biosciences).

[3] = target: T2, Construct 84: full length OX40; assay: flow cytometry, 293-F cells transfected with the construct
Description: The transfected cells were incubated with human OX40 antibodies, human OX40L (hOX40L, RnD Systems), mouse OX40L (mOX40L, RnD Systems) and controls for 30 min 4° C. and then detected with a-huIgG-PE (Jackson Immunoresearch) 30 min 4° C. Cells were analyzed with FACS Verse (BD Biosciences). Binding to the different chimeric constructs were calculated as relative (mean fluorescence intensity) MFI compared to the binding of the isotype control.

[4] = target: T1, Human OX40 (R&D Systems, 3388-OX); assay: SPR Biacore, human OX40 amine-coupled on CM5, antibody injected, 1:1 Langmuir
Description: Human OX40 (R&D systems, #3358_OX) was immobilized to the Biacore™ sensor chip, CM5, using conventional amine coupling. The tested antibodies and controls (serially diluted 1/3 or 1/2 100-2 nM) were analyzed for binding in HBS-P (GE, #BR-1003-68) at a flow rate of […]. The association was followed for 3 minutes and the dissociation for 20 minutes. Regeneration was performed twice using 50 mM NaOH for 60 seconds. The kinetic parameters and the affinity constants were calculated using 1:1 Langmuir model with drifting baseline. […] The kinetic parameters and the affinity constants were calculated using BIAevaluation 4.1 software.

murine OX40 = target: T3, murine OX40; assay: ELISA
CD137 (R&D Systems) = CD137 (R&D Systems) (UniProt Q07011 24-186, limits assumed); assay: ELISA, CD137 coated
Description: as §1

[5] = target: T4, human OX40 overexpressed on CHO cells; assay: flow cytometry, cells with human OX40; ends of the 95% confidence interval
CD40 (Ancell) = CD40 (Ancell) (UniProt P25942 21-193, limits assumed); assay: ELISA, CD40 coated
Description: as §1

Chain of CD137 (R&D Systems) (Q07011 24-186 limits assumed): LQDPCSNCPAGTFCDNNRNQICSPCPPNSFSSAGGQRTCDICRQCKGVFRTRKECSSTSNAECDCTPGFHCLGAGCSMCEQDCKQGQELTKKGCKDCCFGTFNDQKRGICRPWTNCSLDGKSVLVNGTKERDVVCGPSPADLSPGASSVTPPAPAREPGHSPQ
Chain of CD40 (Ancell) (P25942 21-193 limits assumed): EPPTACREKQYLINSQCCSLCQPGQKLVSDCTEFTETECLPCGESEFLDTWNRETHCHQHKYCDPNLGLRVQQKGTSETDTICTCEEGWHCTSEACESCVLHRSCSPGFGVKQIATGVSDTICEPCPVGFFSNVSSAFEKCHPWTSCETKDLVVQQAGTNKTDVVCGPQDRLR

Row | Binder | EC50 [1] | EC50 [2] | relative MFI [3] | Kd [4] | koff [4] | kon [4] | binding result (murine OX40) | binding result (CD137 (R&D Systems)) | EC50 [5] | binding result (CD40 (Ancell))
1 | B1 | < 1 nM | 0.0905 to 0.194 µg/mL | 29.6 fold over isotype control | 0.327 nM | 0.000169 s⁻¹ | 518000 M⁻¹ s⁻¹ | no binding | no binding | 0.0636 to 0.131 µg/mL | no binding
2 | B2 | < 1 nM | 0.722 to 1.41 µg/mL | 29.4 fold over isotype control | 0.463 nM | 0.0001 s⁻¹ | 216000 M⁻¹ s⁻¹ | no binding | no binding | 0.322 to 0.552 µg/mL | no binding
3 | B3 | < 1 nM | 0.292 to 0.589 µg/mL | 21.4 fold over isotype control | 0.43 nM | 0.000187 s⁻¹ | 435000 M⁻¹ s⁻¹ | no binding | no binding | 0.172 to 0.429 µg/mL | no binding
4 | B4 | < 1 nM | 0.157 to 0.312 µg/mL | 24.9 fold over isotype control | 0.753 nM | 0.000584 s⁻¹ | 776000 M⁻¹ s⁻¹ | no binding | no binding | 0.082 to 0.182 µg/mL | no binding
